The results in this text go back to patent US20180155451A1 (published 2018).

The test deals with T1, FcγRIIb extracellular domain with C-terminal His tag (human, UniProt P31994 43-217).
T1 construct: extracellular domain; Expressed in FreeStyle293 cells; used as analyte in Biacore; also called FcgRIIb; 2b; not shown: C-terminal His tag
T1 sequence (looked up): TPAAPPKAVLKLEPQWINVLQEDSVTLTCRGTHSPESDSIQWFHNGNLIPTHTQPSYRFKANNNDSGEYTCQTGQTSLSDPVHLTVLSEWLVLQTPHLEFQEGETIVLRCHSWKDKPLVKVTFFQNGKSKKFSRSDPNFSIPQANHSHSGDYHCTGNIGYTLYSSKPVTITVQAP
As to the kind of experiment: SPR (Biacore), antibody captured on antigen-peptide chip, FcgRIIb as analyte; binding relative to GpH7-A5/GpH7-B3/GpL16-k0 (HeCon Ab) = 100.

B1: GpH7-A5/GpH7-B3 variant S337_09D/GpL16-k0 (He Ab) (antibody, human IgG1, kappa)
heavy 1: not shown
heavy 2: not shown
light: DIVMTQSPLSLPVTPGEPASISCQASESLVHSNRNTYLHWYLQKPGQSPQLLIYKVSNRFSGVPDRFSGSGSGTDFTLKISRVEAEDVGVYYCSQNTHVPPTFGQGTKVEIERTVAAPSVFIFPPSDEQLKSGTASVVCLLNNFYPREAKVQWKVDNALQSGNSQESVTEQDSKDSTYSLSSTLTLSKADYEKHKVYACEVTHQGLSSPVTKSFNRGEC
notes: Substitution in one H chain only; position in EU numbering; also called S337D heterodimerized antibody
On to B1, for which the He/Con_2b is 114 % of control.

B2: GpH7-A5/GpH7-B3 variant S239_09D/GpL16-k0 (He Ab) (antibody, human IgG1, kappa)
heavy 1: not shown
heavy 2: not shown
light: DIVMTQSPLSLPVTPGEPASISCQASESLVHSNRNTYLHWYLQKPGQSPQLLIYKVSNRFSGVPDRFSGSGSGTDFTLKISRVEAEDVGVYYCSQNTHVPPTFGQGTKVEIERTVAAPSVFIFPPSDEQLKSGTASVVCLLNNFYPREAKVQWKVDNALQSGNSQESVTEQDSKDSTYSLSSTLTLSKADYEKHKVYACEVTHQGLSSPVTKSFNRGEC
notes: Substitution in one H chain only; position in EU numbering; also called S239D heterodimerized antibody
In the case of B2, the He/Con_2b is 206 % of control.

B3: GpH7-A5/GpH7-B3 variant S239_07I/GpL16-k0 (He Ab) (antibody, human IgG1, kappa)
heavy 1: not shown
heavy 2: not shown
light: DIVMTQSPLSLPVTPGEPASISCQASESLVHSNRNTYLHWYLQKPGQSPQLLIYKVSNRFSGVPDRFSGSGSGTDFTLKISRVEAEDVGVYYCSQNTHVPPTFGQGTKVEIERTVAAPSVFIFPPSDEQLKSGTASVVCLLNNFYPREAKVQWKVDNALQSGNSQESVTEQDSKDSTYSLSSTLTLSKADYEKHKVYACEVTHQGLSSPVTKSFNRGEC
notes: Substitution in one H chain only; position in EU numbering; also called S239I heterodimerized antibody
For the molecule B3, the He/Con_2b is 107 % of control.

B4: GpH7-A5/GpH7-B3 variant S267_07I/GpL16-k0 (He Ab) (antibody, human IgG1, kappa)
heavy 1: not shown
heavy 2: not shown
light: DIVMTQSPLSLPVTPGEPASISCQASESLVHSNRNTYLHWYLQKPGQSPQLLIYKVSNRFSGVPDRFSGSGSGTDFTLKISRVEAEDVGVYYCSQNTHVPPTFGQGTKVEIERTVAAPSVFIFPPSDEQLKSGTASVVCLLNNFYPREAKVQWKVDNALQSGNSQESVTEQDSKDSTYSLSSTLTLSKADYEKHKVYACEVTHQGLSSPVTKSFNRGEC
notes: Substitution in one H chain only; position in EU numbering; also called S267I heterodimerized antibody
For the molecule B4, the He/Con_2b is 192 % of control.

B5: GpH7-A5/GpH7-B3 variant S239_01G/GpL16-k0 (He Ab) (antibody, human IgG1, kappa)
heavy 1: not shown
heavy 2: not shown
light: DIVMTQSPLSLPVTPGEPASISCQASESLVHSNRNTYLHWYLQKPGQSPQLLIYKVSNRFSGVPDRFSGSGSGTDFTLKISRVEAEDVGVYYCSQNTHVPPTFGQGTKVEIERTVAAPSVFIFPPSDEQLKSGTASVVCLLNNFYPREAKVQWKVDNALQSGNSQESVTEQDSKDSTYSLSSTLTLSKADYEKHKVYACEVTHQGLSSPVTKSFNRGEC
notes: Substitution in one H chain only; position in EU numbering; also called S239G heterodimerized antibody
Take B5: the He/Con_2b is 144 % of control.

B6: GpH7-A5/GpH7-B3 variant S267_09D/GpL16-k0 (He Ab) (antibody, human IgG1, kappa)
heavy 1: not shown
heavy 2: not shown
light: DIVMTQSPLSLPVTPGEPASISCQASESLVHSNRNTYLHWYLQKPGQSPQLLIYKVSNRFSGVPDRFSGSGSGTDFTLKISRVEAEDVGVYYCSQNTHVPPTFGQGTKVEIERTVAAPSVFIFPPSDEQLKSGTASVVCLLNNFYPREAKVQWKVDNALQSGNSQESVTEQDSKDSTYSLSSTLTLSKADYEKHKVYACEVTHQGLSSPVTKSFNRGEC
notes: Substitution in one H chain only; position in EU numbering; also called S267D heterodimerized antibody
On to B6, for which the He/Con_2b was 310 % of control.

B7: GpH7-A5/GpH7-B3 variant S337_10E/GpL16-k0 (He Ab) (antibody, human IgG1, kappa)
heavy 1: not shown
heavy 2: not shown
light: DIVMTQSPLSLPVTPGEPASISCQASESLVHSNRNTYLHWYLQKPGQSPQLLIYKVSNRFSGVPDRFSGSGSGTDFTLKISRVEAEDVGVYYCSQNTHVPPTFGQGTKVEIERTVAAPSVFIFPPSDEQLKSGTASVVCLLNNFYPREAKVQWKVDNALQSGNSQESVTEQDSKDSTYSLSSTLTLSKADYEKHKVYACEVTHQGLSSPVTKSFNRGEC
notes: Substitution in one H chain only; position in EU numbering; also called S337E heterodimerized antibody
With B7, the He/Con_2b is 107 % of control.

B8: GpH7-A5/GpH7-B3 variant P271_01G/GpL16-k0 (He Ab) (antibody, human IgG1, kappa)
heavy 1: not shown
heavy 2: not shown
light: DIVMTQSPLSLPVTPGEPASISCQASESLVHSNRNTYLHWYLQKPGQSPQLLIYKVSNRFSGVPDRFSGSGSGTDFTLKISRVEAEDVGVYYCSQNTHVPPTFGQGTKVEIERTVAAPSVFIFPPSDEQLKSGTASVVCLLNNFYPREAKVQWKVDNALQSGNSQESVTEQDSKDSTYSLSSTLTLSKADYEKHKVYACEVTHQGLSSPVTKSFNRGEC
notes: Substitution in one H chain only; position in EU numbering; also called P271G heterodimerized antibody
Take B8: the He/Con_2b is 193 % of control.

B9: GpH7-A5/GpH7-B3 variant P238_08L/GpL16-k0 (He Ab) (antibody, human IgG1, kappa)
heavy 1: not shown
heavy 2: not shown
light: DIVMTQSPLSLPVTPGEPASISCQASESLVHSNRNTYLHWYLQKPGQSPQLLIYKVSNRFSGVPDRFSGSGSGTDFTLKISRVEAEDVGVYYCSQNTHVPPTFGQGTKVEIERTVAAPSVFIFPPSDEQLKSGTASVVCLLNNFYPREAKVQWKVDNALQSGNSQESVTEQDSKDSTYSLSSTLTLSKADYEKHKVYACEVTHQGLSSPVTKSFNRGEC
notes: Substitution in one H chain only; position in EU numbering; also called P238L heterodimerized antibody
Take B9: the He/Con_2b was 204 % of control.

B10: GpH7-A5/GpH7-B3 variant S239_18N/GpL16-k0 (He Ab) (antibody, human IgG1, kappa)
heavy 1: not shown
heavy 2: not shown
light: DIVMTQSPLSLPVTPGEPASISCQASESLVHSNRNTYLHWYLQKPGQSPQLLIYKVSNRFSGVPDRFSGSGSGTDFTLKISRVEAEDVGVYYCSQNTHVPPTFGQGTKVEIERTVAAPSVFIFPPSDEQLKSGTASVVCLLNNFYPREAKVQWKVDNALQSGNSQESVTEQDSKDSTYSLSSTLTLSKADYEKHKVYACEVTHQGLSSPVTKSFNRGEC
notes: Substitution in one H chain only; position in EU numbering; also called S239N heterodimerized antibody
Turning to B10, the He/Con_2b was 119 % of control.

B11: GpH7-A5/GpH7-B3 variant S267_14T/GpL16-k0 (He Ab) (antibody, human IgG1, kappa)
heavy 1: not shown
heavy 2: not shown
light: DIVMTQSPLSLPVTPGEPASISCQASESLVHSNRNTYLHWYLQKPGQSPQLLIYKVSNRFSGVPDRFSGSGSGTDFTLKISRVEAEDVGVYYCSQNTHVPPTFGQGTKVEIERTVAAPSVFIFPPSDEQLKSGTASVVCLLNNFYPREAKVQWKVDNALQSGNSQESVTEQDSKDSTYSLSSTLTLSKADYEKHKVYACEVTHQGLSSPVTKSFNRGEC
notes: Substitution in one H chain only; position in EU numbering; also called S267T heterodimerized antibody
Consider B11, for which the He/Con_2b is 104 % of control.
